Experimental data published in article PMC7385642.
Values joined by “and” are separate entries in the source; they are usually repeats but may differ in a detail not shown here. Equal values may be shown once.

Key:
[1] = target: YSD1_16, auxiliary protein of phage YSD1 (in the virion) (phage YSD1); test: cryo-EM structure; single-particle icosahedral reconstruction of the head of purified YSD1 virions (assembled in infected bacteria), 3.8 Å
[2] = target: YSD1_17, major capsid protein of phage YSD1 (in the virion) (phage YSD1); test: as above
[3] = target: YSD1_22 delta-HP (residues 45-69 removed and replaced with a glycine) with C-terminal hexa-histidine tag (phage YSD1); test: SEC-MALS; in-line refractive index and multi-angle laser light scattering (DAWN HELEOS-II, Optilab T-rEX), 25 mM Tris pH 8.0, 200 mM NaCl
[4] = target: YSD1_22, tail-tube protein of phage YSD1 (in the virion tail) (phage YSD1); test: cryo-EM structure; helical reconstruction (C6 symmetry) of the tail tube of purified YSD1 virions (assembled in infected bacteria), 3.5 Å

**Q.** For “YSD1_16, auxiliary protein of phage YSD1 (in the virion) (natural protein)”, which stoichiometry N [1] is on record?
**A.** The stoichiometry N was 3.

**Q.** With “YSD1_17, major capsid protein of phage YSD1 (in the virion) (natural protein)” as the substance, how does the stoichiometry N [2] read?
**A.** The stoichiometry N was 5 and 6.

**Q.** How did the stoichiometry N [3] turn out when “YSD1_22 delta-HP (residues 45-69 removed and replaced with a glycine) with C-terminal hexa-histidine tag (natural protein)” was run?
**A.** The stoichiometry N was 6.

**Q.** With “YSD1_22, tail-tube protein of phage YSD1 (in the virion tail) (natural protein)” as the substance, how does the stoichiometry N [4] read?
**A.** The stoichiometry N was 6.
